Test results taken from patent publication US20210292393A1.
Several values for one entry are separate records, joined by “and”; a condition that tells them apart may be missing. Equal entries are not always repeated.

How the values were obtained:
Details in all cases: remark: other sources report otherwise
[1] = molecular target: SARS-CoV-2 full length spike protein, V483A mutant (SARS-CoV-2), P0DTC2
[2] = molecular target: SARS-CoV-2 full length spike protein, V483A mutant, expressed on CHO cells (SARS-CoV-2), P0DTC2
[3] = molecular target: SARS-CoV-2 full length spike protein, D614G mutant, expressed on CHO cells (SARS-CoV-2), P0DTC2
[4] = molecular target: SARS-CoV-2 full length spike protein, V367F mutant, expressed on CHO cells (SARS-CoV-2), P0DTC2

B1: antibody 524 (antibody, V domains shown)
VH: QVQLVESGGGVVQPGRSLRLSCAASGFTFSSYAMHWVRQAPGKGLEWVAVISYDGSNKYYADSVKGRFTISRDNSKNTLYLQMNSLRAEDTAVYYCAKAGGGSYYRGFDYWGQGTLVTVSS
VL: QSVLTQPPSVSAAPGQKVTISCSGSNSNIGNNYVSWYQQLPGSAPKLLIYDNDKRPSGIPDRFSGSKSGTSATLGITGLQTGDEADYYCGAWDSSLTALVFGGGTKLTVL
[1]
  median fold over isotype (fold over isotype): 0.99 and 1.25

B2: antibody 436 (antibody, V domains shown)
VH: QVQVVESGGGVVQPGRSLRLSCAASGFTFSSYAMHWVRQAPGKGLEWVAVISYDGNNEYYVDPVKGRFTISRDNSKNTLYLQMNSLRAEDTALYYCATSREAIVVGGILDYWGQGTLVTVSS
VL: DIQMTQSPSSLSASVGDRVTITCQASHDINNFLNWYQQKPGQAPKLLIYDASNLETGVPSRFSGSGSGTDFTFTISSLHPEDVATYYCQQYDGLPRYVTFGQGTKLEIR
[1]
  median fluorescence fold over isotype control (fold over isotype): 0.85

B3: antibody 505 (antibody, V domains shown)
VH: EVQLVESGGGLVKPGGSLRLSCAASGFTFSSYSMNWVRQAPGKGLEWVSSISSSSSYIYYADSVKGRITISRDNAKNSLYLQMNSLRAEDTAVYYCAREYPNFRAEWLLSPYGMDVWGQGTTVTVSS
VL: QSALTQPASVSGSPGQSITISCTGTSSDVGSYNLVSWYQQHPGKAPKLMIYEVSKRPSGVSNRFSGSKSGNTASLTISGLQAEDEADYYCCSYAGSSTSVKVFGTGTKVTVL
[2]
  median fluorescence intensity, fold over isotype control (fold over isotype): 1

B4: antibody 538 (antibody, V domains shown)
VH: QLQLQESGPGLVKPSETLSLTCTVSGGSISSSSYYWGWIRQPPGKGLEWIGSINYSGSTYYNPSLKSRVTISVDTSKNQFSLKLSSVTAADTAVYYCARYHDYGDDYWGQGTLVTVSS
VL: QLVLTQSPSASASLGASVKLTCTLSSGHSRYAIAWHQQQPEKGPRYLMKLNSDGSHSKGDGIPDRFSGSSSGAERYLTISSLQSEDEADYYCQTWGTGIQVFGGGTKLTVL
[1]
  median fold over isotype (fold over isotype): 1.48

B5: antibody 490 (antibody, V domains shown)
VH: QVQLQESGPGLVKPSGTLSLTCAVSGGSISSSNWWSWVRQPPGKGLEWIGELYHSGSTNYNPSLKSRVTISVDKSKNQFSLKLSSVTAADTAVYYCARVGPYYYDSSGYYNYFDYWGPGTLVTVSS
VL: EIVLTQSPATLSLSPGERATLSCRASQSVSSYLAWYQQKPGQAPRLLIYDASNRATGIPARFSGSGSGTDFTLTISSLEPEDFAVYYCQQRSNWPPGITFGQGTRLEIK
[3]
  median fluorescence intensity, fold over isotype control (fold over isotype): 1.03
[4]
  median fluorescence intensity, fold over isotype control (fold over isotype): 1.14
[2]
  median fluorescence intensity, fold over isotype control (fold over isotype): 1.15 and 1.13 and 1.52

B6: antibody 383 (antibody, V domains shown)
VH: EVQLVESGGGLVQPGGSLRLSCAASGFTFSSYDMHWVRQATGKGLEWVSTIGTAGDTYYPGSVKGRFTISRENAKNSLYLQMNSLRAGDTAVYYCARVAYSSSFVYWYFDLWGRGTLVTVSS
VL: DIQMTQSPSSLSASIGDRVTITCRASQSISSYLNWYQQKPGKAPNLLIYAASSLQSGVPSRFSGSGSGTDFTLTISSLQPEDFATYYCQQSYTTPLYTFGQGTKLEIK
[3]
  median fluorescence fold over isotype control (fold over isotype): 6.38
[4]
  median fluorescence fold over isotype control (fold over isotype): 11.4
[2]
  median fluorescence fold over isotype control (fold over isotype): 1.8

B7: antibody 389 (antibody, V domains shown)
VH: QVQLVESGGGVVQPGRSLRLSCAASGFTFSSYAMHWVRQAPGKGLEWVAVISYDGSNKYYADSVKGRFTISRDNSKNTLYLQMNSLRAEDTAVYYCASQGRMYVRGVDYGVYWGQGTLVTVSS
VL: NFMLTQPHSVSESPGKTVTISCTGSSGSIASNYVQWYQQRPGSAPTTVIYEDNQRPSGVPDRFSGSIDSSSNSASLTISGLKTEDEADYYCQSYDSSKISHAVFGGGTQLTVL
[2]
  median fluorescence fold over isotype control (fold over isotype): 1.24

B8: antibody 485 (antibody, V domains shown)
VH: QVQLQESGPGLVKPSGTLSLTCAVSGASISSSNWWSWVRQPPGKGLEWIGEIYHSGSTNYNPSLKSRVTISVDKSKNQFSLKLSSVTAADTAVYYCARRSYYGSGSYYPFDYWGQGTLVTVSS
VL: QSALTQPASVSGSPGQSITISCTGTSSDVGSYNLVSWYQQHPGKAPKLMIYEGRKRPSGVSNRFSGSKSGNTASLTISGLQAEDEADYYCCSYAGSSTYVFGTGTKVTVL
[2]
  median fluorescence intensity, fold over isotype control (fold over isotype): 1.11

B9: antibody 304 (antibody, V domains shown)
VH: EVQLLESGGGLVQPGGSLRLSCAASGFTFSTYAMSWVRQAPGKGLEWVSAISGSGGSTYYADSVKGRFTISRDNSKNTLYLQMNSLRAEDTAVYYCASGYSPDYWGQGTLVTVSS
VL: AIQMTQSPSSLSASVGDRVTITCRASQGIRNDLGWYQQKPGKAPKLLIYAASSLQSGVPSRFSGSGSGTDFTLTISSLQPEDFATYYCLQDYNYPRTFGQGTKVEIK
[1]
  median fluorescence intensity, fold over isotype control (fold over isotype): 0.66

B10: antibody 551 (antibody, V domains shown)
VH: EVQLVESGGGLVQPGGSLRLSCAASGFTFSSYWMSWVRQAPGKGLEWVANINQDGSDKYYVDSVKGRFTISRDNAKNSLYLQMNSLRAEDTAVYYCARAPGWAAAPTFDYWGQGTLVTVSS
VL: QSALTQPRSVSGSPGQSVTISCTGTSSDVGGYNYVSWYQQHPGKAPKFMIYDVSKRPSGVPDRFSGSKSGNTASLTISGLQAEDEADYYCCSYAGSYTLVVFGGGTKLTVL
[1]
  median fold over isotype (fold over isotype): 1.7

B11: antibody 544 (antibody, V domains shown)
VH: QVQLQQWGAGLLKPSETLSLTCAVYGGSFSGYYWSWIRQPPGKGLEWIGEINHSGSTNYNPSLKSRVTISVDTSKNQFSLKLSSVTAADTAVYYCARGFKWFGELLFGAQGTLVTVSS
VL: not shown
[1]
  median fold over isotype (fold over isotype): 1.58

B12: antibody 464 (antibody, V domains shown)
VH: QVQLVQSGAEVKKPGASVKVSCKVSGYTLTELSMHWVRQAPGKGLEWMGGFDPEDGETIYAQKFQGRVTMTEDTSTDTAYMELSSLRSEDTAVYYCATARAFGVANWFDPWGQGTLVTVSS
VL: QSVLTQPPSASGTPGQRVTISCSGSSSNIGSNYVYWYQQLPGTAPKLLIYRNNQRPSGVPDRFSGSKSGTSASLAISGLRSEDEADYYCAAWDDSLSGLYVFGTGTKVTVL
[3]
  median fluorescence intensity, fold over isotype control (fold over isotype): 0.86
[4]
  median fluorescence intensity, fold over isotype control (fold over isotype): 1.04
[2]
  median fluorescence intensity, fold over isotype control (fold over isotype): 1.04 and 1

B13: antibody 382 (antibody, V domains shown)
VH: QVQLVESGGGVVQPGRSLRLSCAASGFTFSNYGMHWVRQAPGKGLEWMTVISFDGRNKYYADSVKGRFTISRDNSKNTLFLQMNSLTTEDTALYFCASGRRPRYSSGWSFDYWGQGTLVTVSS
VL: DIQMTQSPSSLSASVGDRVTITCQASQDIGNYLNWYQQKLGKAPNLLIYDASNLETGVPSRFSGSGSGTDFTFTINSLQPEDTATYYCQQYDDPSITFGQGTRLEIK
[2]
  median fluorescence fold over isotype control (fold over isotype): 0.88

B14: antibody 390 (antibody, V domains shown)
VH: EVQLVESGGGLIQPGGSLRLSCAASGFTVSSNYMSWVRQAPGKGLEWVSIIYSGGSTYYADSVKGRFTISRDNSKNTLYLQMNSLRAEDSAVYSCATTMVRGLIISYYYGMDVWGQGTTVTVSS
VL: QSALTQPASVSGSPGQSITISCTGTSSDVGGYNYVSWYQQHPGKAPKLMIYEVSNRPSGVSNRFSGSKSGNTASLTISGLQAEDEADYYCSSYTSSSTLVFGGGTKLTVL
[2]
  median fluorescence fold over isotype control (fold over isotype): 1.36

B15: antibody 413 (antibody, V domains shown)
VH: EVQLVESGGGLIQPGGSLRLSCAASGFTVSGNYMNWVRQAPGKGLEWVSVIYSGGSTYYADSVKGRFTISRANSKNTLYLQMNSLRAEDTAVYYCASTSLVRGLIILYYYGMDVWGQGTTVTVSS
VL: QSALTQPASVSGSPGQSITISCTGTSSDVGGYNYVSWYQQHPGKAPKLMIYEVSNRPSGVSNRFSGSKSGNTASLTISGLQAEDEADYYCSSYTSSSTLVFGGGTKLTVL
[2]
  median fluorescence fold over isotype control (fold over isotype): 1.67

B16: antibody 507 (antibody, V domains shown)
VH: QVQLQESGPGLVKPSGTLSLTCAVSGGSISSSNWWSWVRQPPGKGLEWIGEIYHSGNTNYNPSLKSRVTISVDKSKNQFSLKLSSVTAADTAVYYCARREWLRLFDYWGQGTLVTVSS
VL: QSALTQPASVSGSPGQSITISCTGTSSDVGSYNLVSWYQQHPGKAPKLMIYEVSKRPSGVSNRFSGSKSGNTASLTISGLQAEDEADYYCCSYAGSSTYVFGTGTKVTVL
[2]
  median fluorescence intensity, fold over isotype control (fold over isotype): 1.12

B17: antibody 493 (antibody, V domains shown)
VH: EVQLVESGGGLIQPGRSLRLSCAASGFTVSITYMSWVRQAPGKGLEWVSLIYSGGSSYYADSVKGRFTISRDNSKNTLYLQMNSLRAEDTAVYYCATTMVRGVIISYYYGMDVWGQGTTVTVSS
VL: QSALTQPASVSGSPGQSITISCTGTSSDVGGYNYVSWYQQHPGKAPKLMIYEVSNRPSGVSNRFSGSKSGNTASLTISGLQAEDEADYYCSSYTSSSTLVFGGGTKLTVL
[3]
  median fluorescence intensity, fold over isotype control (fold over isotype): 1.72
[4]
  median fluorescence intensity, fold over isotype control (fold over isotype): 4.82
[2]
  median fluorescence intensity, fold over isotype control (fold over isotype): 4.63 and 2.26

B18: antibody 472 (antibody, V domains shown)
VH: EVQLVESGGGLIQPGGSLRLSCAASGFTVSSNYMSWVRQAPGKGLEWVSVIYSGGTTHYADSVKGRFTISRDNSKNTLYLQMNSLRAEDTAVYYCANYGMDVWGQGTTVTVSS
VL: SYELTQPSSVSVSPGQTARITCSGDVLAKKYARWFQQKPGQAPVLVIYKDSERPSGIPERFSGSSSGTTVTLTISGAQVEDEADYYCYSAADKVFGGGTKLTVL
[3]
  median fluorescence intensity, fold over isotype control (fold over isotype): 1.22
[4]
  median fluorescence intensity, fold over isotype control (fold over isotype): 3.19
[2]
  median fluorescence intensity, fold over isotype control (fold over isotype): 2.35 and 2.49

B19: antibody 374 (antibody, V domains shown)
VH: QVQLQESGPGLVKPSGTLSLTCAVSGGSISSSKWWSWVRQPPGKGLEWIGEIYHSGSTNYNPSLKSRVTISVDKSKNQFSLKLSSVTAADTAVYYCARRELGEGTFTYWGQGTLVTVSS
VL: not shown
[2]
  median fluorescence fold over isotype control (fold over isotype): 1.22
